{"source": "patent US10272135B2", "about": "“Apolipoprotein O and fragments thereof for inducing apoptosis in a cancerous cell” (INSERM (INSTITUT NATIONAL DE LA SANTÉ ET DE LA RECHERCHE …, priority 2014, dated 2019)", "molecules": {"B1": {"name": "ApoO: 198-amino acid apolipoprotein, SEQ ID NO: 1; tested by overexpression from expression vectors or transgene (protein, listed as Homo sapiens)", "chain": "MFKVIQRSVGPASLSLLTFKVYAAPKKDSPPKNSVKVDELSLYSVPEGQSKYVEEARSQLEESISQLRHYCEPYTTWCQETYSQTKPKMQSLVQWGLDSYDYLQNAPPGFFPRLGVIGFAGLIGLLLARGSKIKKLVYPPGFMGLAASLYYPQQAIVFAQVSGERLYDWGLRGYIVIEDLWKENFQKPGNVKNSPGTK"}}, "key": {"[1]": {"test_system": "mouse heart", "experiment": "Cardiac specific human ApoO transgenic mice (ApoO-Tg)", "type": "in vivo", "excerpt": "After ethical committee approval, all patients in this study gave written consent for sample collection and molecular analysis prior to inclusion. Patients were carefully selected by physicians from the Department of Cardiology, Toulouse University Hospital, prior to coronary by-pass surgery. Bioinformatics. Microarray expression data from human heart samples were downloaded from the GEO repository (GSE1145). This series consisted of 107 myocardial samples collected from patients undergoing cardiac transplantation whose failure arises from different etiologies (e.g. idiopathic dilated cardiomyopathy, ischemic cardiomyopathy, valvular cardiomyopathy, and hypertrophic cardiomyopathy) and from “normal” organ donors whose hearts cannot be used for transplants. Arrays were intensity normalized and hierarchical clustering (average group linkage, Pearson correlation, threshold r=0.8) was applied to identify groups of co-expressed genes. ApoO expression levels were plotted for the 107 human hearts tested and used to define relevant molecular pathways using both Toppgene and Ingenuity Pathway Analysis (Ingenuity systems, Redwood City, Calif., USA). ApoO subcellular localization was predicted using Mitopred, mitoprot and YLoc. Animals: All animal Studies followed the INSERM Institute Animal Facility guidelines and were approved by the animal care committees of the INSERM I2MC UMR 1048. All animal procedures were performed according to the guidelines of the French Ministry of Agriculture. Animals were housed at the Toulouse I2MC animal facility in a room lit 12 h per day (6 AM-6 PM) at an ambient temperature of 22+/−1° C. Construction of ApoO Expression Vectors To overexpress human ApoO (pTT-ApoO), the ApoO coding sequence was amplified using primers hApoO5BamPTT (SEQ ID NO: 2) and hApoO3BamPTT (SEQ ID NO: 3) and cloned into the BamH1 site of pTT expression vector. pSNAP-ApoO was generated by PCR amplification of pTT-ApoO using primers SnapApoEcorV-F (SEQ ID NO: 4) and SnapApoEcorV-R (SEQ ID NO: 5) and cloned into the EcoRV site of pSNAP-Tag® (Ozyme, Saint-Quentin-en-Yvelines, France). pGEX2T-ApoO was constructed by PCR amplification of pTT-ApoO using hApoOpGEX1FBam (SEQ ID NO: 6) and hApoOpGEX1RSma (SEQ ID NO: 7) and cloned into the Bam HI/Sma I site of pGEX2T (Promega, Charbonnières-les-Bains). All primers used in this work were synthesized by Eurogentec France (Angers). All restriction enzymes used were from New England Biolabs (Ozyme, Saint-Quentin-en-Yvelines). All ApoO sequences within the expression vectors were verified by DNA double strand sequencing using ABI PRISM®BigDye™ Terminator version 3.1 Ready reaction cycle sequencing kit (Life Technologies SAS, Villebon sur Yvette) and loaded on an ABI 3130XL DNA sequencing instrument (Life Technologies SAS, Villebon sur Yvette). Cell Culture and Tranfection of H9C2 Cardic Myoblasts H9c2 were obtained from the European Collection of Cell Cultures (Salisbury, England). H9c2 cells were cultured in Dulbecco's modified Eagle medium (Life Technologies SAS, Villebon sur Yvette) adjusted to contain 1.5 g/liter sodium bicarbonate and supplemented with antibiotic-antimycotic solution (Life Technologies SAS, Villebon sur Yvette) and 10% fetal bovine serum (FBS, AbCys s.a., Paris). Cells were plated on 10-cm diameter tissue culture dish and grown in a 5% CO2 incubator at 37° C. with saturating humidity with medium changes every 2 days. H9c2 cardiomyoblasts were stably transfected by electroporation and pools of tranfectants were selected as previously published. Knock-Down of ApoO Overexpression shRNA used to knock-down ApoO gene expression and controls were from MISSION shRNA set; Sh2=TRCN 72707; Sh4=TRCN 72704; Sh5=TRCN 72705 (Sigma Aldrich, Saint-Quentin Fallavier) and used as recommended by generating pools of stable transfectants. Empty vector (no shRNA insert) control was also transfected and had no significant effect. […]"}, "[2]": {"test_system": "cardiac myoblasts", "experiment": "Transmission electron microscopy of cardiac myoblasts", "type": "cell-based", "conditions": "ApoO cells", "excerpt": "(§1) After ethical committee approval, all patients in this study gave written consent for sample collection and molecular analysis prior to inclusion. Patients were carefully selected by physicians from the Department of Cardiology, Toulouse University Hospital, prior to coronary by-pass surgery. Bioinformatics. Microarray expression data from human heart samples were downloaded from the GEO repository (GSE1145). This series consisted of 107 myocardial samples collected from patients undergoing cardiac transplantation whose failure arises from different etiologies (e.g. idiopathic dilated cardiomyopathy, ischemic cardiomyopathy, valvular cardiomyopathy, and hypertrophic cardiomyopathy) and from “normal” organ donors whose hearts cannot be used for transplants. Arrays were intensity normalized and hierarchical clustering (average group linkage, Pearson correlation, threshold r=0.8) was applied to identify groups of co-expressed genes. […] All ApoO sequences within the expression vectors were verified by DNA double strand sequencing using ABI PRISM®BigDye™ Terminator version 3.1 Ready reaction cycle sequencing kit (Life Technologies SAS, Villebon sur Yvette) and loaded on an ABI 3130XL DNA sequencing instrument (Life Technologies SAS, Villebon sur Yvette). […]"}, "[3]": {"test_system": "VDAC", "experiment": "Blue Native Page and GST pull-down with heart mitochondria protein extracts", "type": "binding, mouse", "conditions": "BN-PAGE and GST pull-down", "excerpt": "as §1"}, "[4]": {"test_system": "long-chain acyl-CoA synthetase (ACSL)", "experiment": "Acyl-CoA synthetase activity in cardiac myoblasts", "type": "cell-based", "conditions": "ApoO cells vs control (FIG. 6C)", "excerpt": "as §1"}, "[5]": {"test_system": "mouse liver", "experiment": "Hydrodynamics-based in vivo transfection of the mouse liver", "excerpt": "After ethical committee approval, all patients in this study gave written consent for sample collection and molecular analysis prior to inclusion. Patients were carefully selected by physicians from the Department of Cardiology, Toulouse University Hospital, prior to coronary by-pass surgery. Bioinformatics. Microarray expression data from human heart samples were downloaded from the GEO repository (GSE1145). This series consisted of 107 myocardial samples collected from patients undergoing cardiac transplantation whose failure arises from different etiologies (e.g. idiopathic dilated cardiomyopathy, ischemic cardiomyopathy, valvular cardiomyopathy, and hypertrophic cardiomyopathy) and from “normal” organ donors whose hearts cannot be used for transplants. Arrays were intensity normalized and hierarchical clustering (average group linkage, Pearson correlation, threshold r=0.8) was applied to identify groups of co-expressed genes. ApoO expression levels were plotted for the 107 human hearts tested and used to define relevant molecular pathways using both Toppgene and Ingenuity Pathway Analysis (Ingenuity systems, Redwood City, Calif., USA). ApoO subcellular localization was predicted using Mitopred, mitoprot and YLoc. Animals: All animal Studies followed the INSERM Institute Animal Facility guidelines and were approved by the animal care committees of the INSERM I2MC UMR 1048. All animal procedures were performed according to the guidelines of the French Ministry of Agriculture. Animals were housed at the Toulouse I2MC animal facility in a room lit 12 h per day (6 AM-6 PM) at an ambient temperature of 22+/−1° C. Construction of ApoO Expression Vectors To overexpress human ApoO (pTT-ApoO), the ApoO coding sequence was amplified using primers hApoO5BamPTT (SEQ ID NO: 2) and hApoO3BamPTT (SEQ ID NO: 3) and cloned into the BamH1 site of pTT expression vector. pSNAP-ApoO was generated by PCR amplification of pTT-ApoO using primers SnapApoEcorV-F (SEQ ID NO: 4) and SnapApoEcorV-R (SEQ ID NO: 5) and cloned into the EcoRV site of pSNAP-Tag® (Ozyme, Saint-Quentin-en-Yvelines, France). pGEX2T-ApoO was constructed by PCR amplification of pTT-ApoO using hApoOpGEX1FBam (SEQ ID NO: 6) and hApoOpGEX1RSma (SEQ ID NO: 7) and cloned into the Bam HI/Sma I site of pGEX2T (Promega, Charbonnières-les-Bains). All primers used in this work were synthesized by Eurogentec France (Angers). All restriction enzymes used were from New England Biolabs (Ozyme, Saint-Quentin-en-Yvelines). All ApoO sequences within the expression vectors were verified by DNA double strand sequencing using ABI PRISM®BigDye™ Terminator version 3.1 Ready reaction cycle sequencing kit (Life Technologies SAS, Villebon sur Yvette) and loaded on an ABI 3130XL DNA sequencing instrument (Life Technologies SAS, Villebon sur Yvette). Cell Culture and Tranfection of H9C2 Cardic Myoblasts H9c2 were obtained from the European Collection of Cell Cultures (Salisbury, England). H9c2 cells were cultured in Dulbecco's modified Eagle medium (Life Technologies SAS, Villebon sur Yvette) adjusted to contain 1.5 g/liter sodium bicarbonate and supplemented with antibiotic-antimycotic solution (Life Technologies SAS, Villebon sur Yvette) and 10% fetal bovine serum (FBS, AbCys s.a., Paris). Cells were plated on 10-cm diameter tissue culture dish and grown in a 5% CO2 incubator at 37° C. with saturating humidity with medium changes every 2 days. […]"}, "[6]": {"test_system": "cardiac myoblasts", "experiment": "Reactive oxygen species assessment (carboxy-DCFDA) in cardiac myoblasts", "type": "cell-based", "conditions": "ApoO cells vs control (FIG. 4D)", "excerpt": "as §1"}}}
{"molecule": "B1", "values": [{"measurement": "cytochrome C oxidase activity in heart", "setting": "[1]; ApoO-Tg hearts", "result": "increase"}, {"measurement": "diglyceride levels in heart", "setting": "[1]; ApoO-Tg vs WT (FIG. 8a)", "result": "increased"}, {"measurement": "intracellular triglycerides in heart", "setting": "[1]; ApoO-Tg vs WT (FIG. 8b)", "result": "did not significantly modify"}, {"measurement": "Bax expression in heart", "setting": "[1]; ApoO-Tg vs WT (FIG. 9b)", "result": "enhanced"}, {"measurement": "Caspase-3 activity in heart", "setting": "[1]; ApoO-Tg vs WT (FIG. 9c)", "result": "enhanced"}, {"measurement": "ACSL activity in heart", "setting": "[1]; hearts from ApoO-Tg mice", "result": "significant increase"}, {"measurement": "fatty acid transporter expression in heart", "setting": "[1]; hearts from ApoO-Tg mice", "result": "significant increase"}, {"measurement": "calcium retention capacity", "setting": "[1]; mitochondria isolated from ApoO-Tg mice hearts", "result": "significantly diminished"}, {"measurement": "plasma membrane morphology (TEM)", "setting": "[2]", "result": "formation of blebs"}, {"measurement": "interaction with VDAC", "setting": "[3]", "result": "excluded any interaction"}, {"measurement": "long-chain acyl-CoA synthetase (ACSL) activity", "setting": "[4]", "result": "strongly increased"}, {"measurement": "Caspase-3 activity in liver", "setting": "[5]; 48 hours after transfection (FIG. 9e)", "result": "confirmed"}, {"measurement": "Bax expression in liver", "setting": "[5]; 48 hours after transfection (FIG. 9d)", "result": "confirmed"}, {"measurement": "diglyceride levels in liver", "setting": "[5]; ApoO transfected liver vs control vector (FIG. 8c)", "result": "increased"}, {"measurement": "intracellular triglycerides in liver", "setting": "[5]; ApoO transfected liver vs control vector (FIG. 8d)", "result": "did not significantly modify"}, {"measurement": "oxygen consumption of isolated liver mitochondria", "setting": "[5]; in vivo transfected mouse liver", "result": "significant increase"}, {"measurement": "intracellular reactive oxygen species (ROS)", "setting": "[6]", "result": "increases"}]}
